{"source": "the RNAGym collection of RNA variant scans (doi:10.7554/elife.90254)", "parents": {"B1": {"name": "LINE1-full (parent)", "chain": "UACGUAGGUGGUUUUCCCCUGAUAGUGCUAAGGGGGCCUGGAAGUUUGGACUGGGCAGAGCUCAACACAGCGUGGCAAAGUGGCUGUGGCUAGACUGCCUCUCUGGAUUCCUCGUCACUCAGCAGGGCAUCUCUGAGAGAAAUGCC"}}, "data": [{"variants_of": "B1", "test": "self-cleavage, relative activity (ratio to wild type); higher = more cleavage; in vitro, sequencing; the parent is a self-cleaving ribozyme", "values": [{"variant": "C19U G114A", "self-cleavage": 1.28}, {"variant": "A79G U132G", "self-cleavage": 0.63}, {"variant": "A69C U81C", "self-cleavage": 0}, {"variant": "U46G U87C", "self-cleavage": 0}, {"variant": "A94U A136G", "self-cleavage": 0.3}, {"variant": "U91C A92U", "self-cleavage": 0.23}, {"variant": "C37A A92C", "self-cleavage": 0.2}, {"variant": "U26A U112A", "self-cleavage": 0.9}, {"variant": "U1C A65G", "self-cleavage": 0.07}, {"variant": "A42U A141G", "self-cleavage": 0.9}, {"variant": "A30G A57C", "self-cleavage": 0}, {"variant": "C51G U62C", "self-cleavage": 0.08}, {"variant": "A124C U134C", "self-cleavage": 2.04}, {"variant": "C111U A138G", "self-cleavage": 2.01}, {"variant": "A57U U143A", "self-cleavage": 0.11}, {"variant": "G33A A77U", "self-cleavage": 1.47}, {"variant": "U13C U104C", "self-cleavage": 1.28}, {"variant": "U91C G137A", "self-cleavage": 1.14}, {"variant": "A6G A22G", "self-cleavage": 1.19}, {"variant": "A124G G139A", "self-cleavage": 1.84}, {"variant": "G25A G35A", "self-cleavage": 0.91}, {"variant": "U15A U100G", "self-cleavage": 1.07}, {"variant": "U13C G83U", "self-cleavage": 0.27}, {"variant": "U39A U81A", "self-cleavage": 2.08}, {"variant": "A22G G40A", "self-cleavage": 0.55}, {"variant": "A57G A77U", "self-cleavage": 0.58}, {"variant": "U15A U46C", "self-cleavage": 0.76}, {"variant": "U39G U143C", "self-cleavage": 1.81}, {"variant": "U52C C84U", "self-cleavage": 0.15}, {"variant": "G60A U91C", "self-cleavage": 0}, {"variant": "U12C U26A", "self-cleavage": 1.03}, {"variant": "A94G C131U", "self-cleavage": 0.17}, {"variant": "A31C U109C", "self-cleavage": 2.01}, {"variant": "C90U A138G", "self-cleavage": 0.04}, {"variant": "A31C A69G", "self-cleavage": 0.33}, {"variant": "U26G U130C", "self-cleavage": 0.86}, {"variant": "G55A U115A", "self-cleavage": 0.21}, {"variant": "U96A C103A", "self-cleavage": 0.06}, {"variant": "A6U U100A", "self-cleavage": 0.52}, {"variant": "U15C A107U", "self-cleavage": 1.2}, {"variant": "U39C U132C", "self-cleavage": 1.32}, {"variant": "G40C C146U", "self-cleavage": 1.54}, {"variant": "G83U U108C", "self-cleavage": 1.07}, {"variant": "U39C U96C", "self-cleavage": 0.05}, {"variant": "U9A G125U", "self-cleavage": 0.15}, {"variant": "A57G G125A", "self-cleavage": 0.52}, {"variant": "U132C A141U", "self-cleavage": 0.63}, {"variant": "U15C A65G", "self-cleavage": 0.1}, {"variant": "G27A A94U", "self-cleavage": 0.18}, {"variant": "U87G A107G", "self-cleavage": 0}, {"variant": "U39C U108C", "self-cleavage": 1.92}, {"variant": "A50G U109C", "self-cleavage": 0.96}, {"variant": "A78U G135A", "self-cleavage": 1.8}, {"variant": "C28A U81C", "self-cleavage": 0.89}, {"variant": "U91C U119A", "self-cleavage": 0.48}, {"variant": "A30U U109C", "self-cleavage": 1.33}, {"variant": "U52G U104A", "self-cleavage": 1}, {"variant": "U47A A69U", "self-cleavage": 0.04}, {"variant": "C56G", "self-cleavage": 0.07}, {"variant": "A6G A50C", "self-cleavage": 1.23}, {"variant": "U52C U91G", "self-cleavage": 0.17}, {"variant": "C118U U134A", "self-cleavage": 1.11}, {"variant": "C17U A64G", "self-cleavage": 0.22}, {"variant": "G48C A142G", "self-cleavage": 1.38}, {"variant": "U52C G137A", "self-cleavage": 0.89}, {"variant": "A50G C61U", "self-cleavage": 0.05}, {"variant": "A59U U119C", "self-cleavage": 0.6}, {"variant": "A92G U134C", "self-cleavage": 0}, {"variant": "A59U C63A", "self-cleavage": 0.02}, {"variant": "G89C U119A", "self-cleavage": 0.02}, {"variant": "U52G U91C", "self-cleavage": 1.23}, {"variant": "A30G C116U", "self-cleavage": 1.27}, {"variant": "U104G U132A", "self-cleavage": 1.06}, {"variant": "A79G A140G", "self-cleavage": 1.12}, {"variant": "U9C C51A", "self-cleavage": 0.63}, {"variant": "C37U U112A", "self-cleavage": 1.07}, {"variant": "U85C C123G", "self-cleavage": 0.15}, {"variant": "U46A A78U", "self-cleavage": 2.19}, {"variant": "A43U U143C", "self-cleavage": 0.51}, {"variant": "A65C G80A", "self-cleavage": 0.02}, {"variant": "U9C C18U", "self-cleavage": 1}, {"variant": "U47A A77C", "self-cleavage": 1.6}, {"variant": "G82A U85C", "self-cleavage": 0.23}, {"variant": "C95G", "self-cleavage": 0.06}, {"variant": "U47A A121G", "self-cleavage": 1.39}, {"variant": "A79C A136G", "self-cleavage": 1.93}, {"variant": "U5A U9C", "self-cleavage": 0.81}, {"variant": "U9C U96G", "self-cleavage": 0}, {"variant": "A107G U108A", "self-cleavage": 1.47}, {"variant": "U26C G44A", "self-cleavage": 1.17}, {"variant": "G74A A129G", "self-cleavage": 1.53}, {"variant": "C103A A129G", "self-cleavage": 1.59}, {"variant": "A79G U104G", "self-cleavage": 1.7}, {"variant": "C68A", "self-cleavage": 0.04}, {"variant": "G82U", "self-cleavage": 1.52}, {"variant": "A59G G127A", "self-cleavage": 0.07}, {"variant": "U87A U119C", "self-cleavage": 0.07}, {"variant": "U26C G32C", "self-cleavage": 0.94}, {"variant": "A31U U119A", "self-cleavage": 1.17}, {"variant": "A78U A141G", "self-cleavage": 1.96}, {"variant": "U13A C38A", "self-cleavage": 0.96}, {"variant": "A92U A129U", "self-cleavage": 0.6}, {"variant": "G93A U109A", "self-cleavage": 0.03}, {"variant": "U62C A64U", "self-cleavage": 0.05}, {"variant": "U45G U81A", "self-cleavage": 1.82}, {"variant": "A59G A136G", "self-cleavage": 0.07}, {"variant": "U45G U108C", "self-cleavage": 1.91}, {"variant": "A43U A69U", "self-cleavage": 0.05}, {"variant": "C3U G58U", "self-cleavage": 0}, {"variant": "C68A C133A", "self-cleavage": 0.02}, {"variant": "U15C U100G", "self-cleavage": 1.84}, {"variant": "G54A U112A", "self-cleavage": 0.83}, {"variant": "U62A C120U", "self-cleavage": 0.02}, {"variant": "U9C U20G", "self-cleavage": 1.16}, {"variant": "G89A U104A", "self-cleavage": 0.01}, {"variant": "U39A U100C", "self-cleavage": 1.67}, {"variant": "A31G A129G", "self-cleavage": 1.05}, {"variant": "C17U A50G", "self-cleavage": 0.59}, {"variant": "A24G C111A", "self-cleavage": 1.74}, {"variant": "U85A A92G", "self-cleavage": 0.13}, {"variant": "G8A A64G", "self-cleavage": 0.42}, {"variant": "U13C U143G", "self-cleavage": 2.3}, {"variant": "A22G U39C", "self-cleavage": 1.14}, {"variant": "U104C U143A", "self-cleavage": 1.56}, {"variant": "G41A U102A", "self-cleavage": 1.05}, {"variant": "U112A U143A", "self-cleavage": 1.38}, {"variant": "C38U U130C", "self-cleavage": 1.46}, {"variant": "U12A A124G", "self-cleavage": 0.87}, {"variant": "U130A A142G", "self-cleavage": 1.48}, {"variant": "A78G A121C", "self-cleavage": 1.9}, {"variant": "U9A C38A", "self-cleavage": 1.26}, {"variant": "U15C U112C", "self-cleavage": 1.37}, {"variant": "U29A U134A", "self-cleavage": 1.19}, {"variant": "A42G C128U", "self-cleavage": 1.28}, {"variant": "C99U", "self-cleavage": 0.57}, {"variant": "G74A A142G", "self-cleavage": 1.1}, {"variant": "A2G C28U", "self-cleavage": 0.72}, {"variant": "U14C A138G", "self-cleavage": 1.23}, {"variant": "A50U A136U", "self-cleavage": 1.21}, {"variant": "A57U G135U", "self-cleavage": 0.08}, {"variant": "U5A C95U", "self-cleavage": 0.14}, {"variant": "A2G U134G", "self-cleavage": 1.21}, {"variant": "U87A A92G", "self-cleavage": 0.13}, {"variant": "G53A U91C", "self-cleavage": 0.53}, {"variant": "G36U U134C", "self-cleavage": 1.99}, {"variant": "U39A A142C", "self-cleavage": 1.59}, {"variant": "A22G A121G", "self-cleavage": 0.95}, {"variant": "C17U A69G", "self-cleavage": 0.4}, {"variant": "A67G C76U", "self-cleavage": 0.62}, {"variant": "C76A U132C", "self-cleavage": 2.08}, {"variant": "A64G U87C", "self-cleavage": 0.06}, {"variant": "G36A A140G", "self-cleavage": 1.3}, {"variant": "G11A", "self-cleavage": 1.31}, {"variant": "G54A U115C", "self-cleavage": 1.27}, {"variant": "U52C A79G", "self-cleavage": 0.75}, {"variant": "A50U A77G", "self-cleavage": 0.43}, {"variant": "U13G U46C", "self-cleavage": 1.33}, {"variant": "U13G A107U", "self-cleavage": 1.58}, {"variant": "A22G U115A", "self-cleavage": 1.52}, {"variant": "A65U A138U", "self-cleavage": 0.16}, {"variant": "A69G U119A", "self-cleavage": 0.65}, {"variant": "U130A U134A", "self-cleavage": 1.33}, {"variant": "G8U G35A", "self-cleavage": 1.41}, {"variant": "U5A U12G", "self-cleavage": 0.6}, {"variant": "A79C U85C", "self-cleavage": 0.58}, {"variant": "A141G A142U", "self-cleavage": 1.36}, {"variant": "U87A U91C", "self-cleavage": 0.07}]}]}
